# Measured values from PMC7857403.
# Assays:
# [1] = target: SARS-CoV-2 spike receptor binding domain (SARS-CoV-2) (UniProt P0DTC2); assay: BLI
# [2] = target: SARS-CoV-2 spike receptor binding domain (SARS-CoV-2) (UniProt P0DTC2)
Substance,Kd [1] [nM],other [2] [pM]
LCB3 (designed binder),< 1,–
LCB1 (designed binder),< 1,23.5
